Experiments:
Test in all cases: co-IP; lysates of CHO GABABR1b/R2 cells transiently expressing KCC2-GFP constructs or GFP, CHAPS buffer; anti-GFP as the precipitating antibody; blots probed for GABABR1 (quantified against FL-KCC2 = 100%) or transferrin receptor
[1] = target: KCC2 deletion mutant NTD + TMD fused to GFP (rat)
[2] = target: KCC2 transmembrane domain (TMD) fused to GFP (rat)
[3] = target: KCC2 deletion mutant TMD + CTD fused to GFP (rat)
Sequence of KCC2 deletion mutant TMD + CTD fused to GFP (rat) (Q63633 whole entry, stated change not applied, the tested form may be a part): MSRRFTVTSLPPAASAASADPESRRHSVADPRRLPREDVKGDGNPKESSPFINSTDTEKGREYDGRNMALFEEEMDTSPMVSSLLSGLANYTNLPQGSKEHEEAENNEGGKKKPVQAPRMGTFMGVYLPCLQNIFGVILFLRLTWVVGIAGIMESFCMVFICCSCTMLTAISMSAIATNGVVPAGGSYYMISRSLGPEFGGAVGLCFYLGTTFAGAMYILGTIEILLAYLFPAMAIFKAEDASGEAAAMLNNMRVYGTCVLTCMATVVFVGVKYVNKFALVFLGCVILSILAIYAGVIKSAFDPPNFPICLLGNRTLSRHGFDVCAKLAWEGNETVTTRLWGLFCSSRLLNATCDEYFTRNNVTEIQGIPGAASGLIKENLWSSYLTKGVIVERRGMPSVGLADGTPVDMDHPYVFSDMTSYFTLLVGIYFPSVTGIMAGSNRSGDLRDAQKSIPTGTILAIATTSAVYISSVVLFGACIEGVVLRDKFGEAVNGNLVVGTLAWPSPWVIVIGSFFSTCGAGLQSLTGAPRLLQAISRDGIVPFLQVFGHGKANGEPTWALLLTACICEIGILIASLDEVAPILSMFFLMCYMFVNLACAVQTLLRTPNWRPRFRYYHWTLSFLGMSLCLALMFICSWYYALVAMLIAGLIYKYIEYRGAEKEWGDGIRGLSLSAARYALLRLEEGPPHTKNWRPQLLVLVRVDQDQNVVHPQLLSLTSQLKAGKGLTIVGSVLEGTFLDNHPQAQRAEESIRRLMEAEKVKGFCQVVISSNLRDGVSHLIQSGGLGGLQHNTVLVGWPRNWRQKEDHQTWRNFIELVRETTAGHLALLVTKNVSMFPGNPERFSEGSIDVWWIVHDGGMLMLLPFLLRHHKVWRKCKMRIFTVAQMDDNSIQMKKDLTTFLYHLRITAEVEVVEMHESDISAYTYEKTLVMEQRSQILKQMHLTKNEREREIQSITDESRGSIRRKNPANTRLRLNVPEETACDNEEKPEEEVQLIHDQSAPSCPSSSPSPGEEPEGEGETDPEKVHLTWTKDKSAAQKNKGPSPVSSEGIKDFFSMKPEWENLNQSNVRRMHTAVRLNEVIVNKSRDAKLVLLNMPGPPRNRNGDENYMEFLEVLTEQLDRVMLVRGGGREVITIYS

Sequence of KCC2 deletion mutant NTD + TMD fused to GFP (rat) (Q63633 1-640, stated change not applied): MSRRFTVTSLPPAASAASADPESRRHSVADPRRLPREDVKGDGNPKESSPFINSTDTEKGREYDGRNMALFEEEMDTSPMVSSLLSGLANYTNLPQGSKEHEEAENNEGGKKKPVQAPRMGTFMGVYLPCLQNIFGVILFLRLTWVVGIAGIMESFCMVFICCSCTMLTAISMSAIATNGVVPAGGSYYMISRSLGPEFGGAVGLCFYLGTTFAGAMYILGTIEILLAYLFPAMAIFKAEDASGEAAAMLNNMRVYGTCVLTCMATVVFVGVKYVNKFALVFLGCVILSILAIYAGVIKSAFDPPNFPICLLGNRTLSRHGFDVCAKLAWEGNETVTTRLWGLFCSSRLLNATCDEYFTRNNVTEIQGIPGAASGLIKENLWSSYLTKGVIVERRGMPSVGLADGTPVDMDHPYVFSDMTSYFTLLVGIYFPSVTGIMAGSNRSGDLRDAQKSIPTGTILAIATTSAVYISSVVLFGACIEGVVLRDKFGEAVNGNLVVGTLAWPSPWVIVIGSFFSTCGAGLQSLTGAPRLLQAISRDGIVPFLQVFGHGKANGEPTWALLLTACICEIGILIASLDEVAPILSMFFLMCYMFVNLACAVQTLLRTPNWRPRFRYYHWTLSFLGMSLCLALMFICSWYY
Sequence of KCC2 transmembrane domain (TMD) fused to GFP (rat) (Q63633 97-640): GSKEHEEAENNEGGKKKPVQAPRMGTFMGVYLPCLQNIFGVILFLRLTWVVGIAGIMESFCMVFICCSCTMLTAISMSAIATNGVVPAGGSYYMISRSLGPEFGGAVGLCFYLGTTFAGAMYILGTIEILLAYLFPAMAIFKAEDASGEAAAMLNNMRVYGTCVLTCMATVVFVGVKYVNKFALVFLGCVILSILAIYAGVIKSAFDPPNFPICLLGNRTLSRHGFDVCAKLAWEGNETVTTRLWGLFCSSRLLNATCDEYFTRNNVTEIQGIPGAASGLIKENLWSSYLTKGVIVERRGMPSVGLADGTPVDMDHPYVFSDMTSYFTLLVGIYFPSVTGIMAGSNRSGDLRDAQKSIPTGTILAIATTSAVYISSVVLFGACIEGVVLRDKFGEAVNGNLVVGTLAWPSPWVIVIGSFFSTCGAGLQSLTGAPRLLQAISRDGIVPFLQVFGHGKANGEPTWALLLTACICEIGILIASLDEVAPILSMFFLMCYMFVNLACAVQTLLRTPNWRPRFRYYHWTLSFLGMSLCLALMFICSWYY

“GABAB receptor of rat GABABR1b and GABABR2, stably expressed in CHO cells (from UniProt Q9Z0U4-2 20-960; O88871 41-940) (complex)” was tested, and the relative amount of GABABR detected after isolation with the GFP antibody (FL-KCC2 = 100%) [1] was 68 % of FL-KCC2, the relative amount of GABABR detected after isolation with the GFP antibody (FL-KCC2 = 100%) [2] was 76 % of FL-KCC2 and the relative amount of GABABR detected after isolation with the GFP antibody (FL-KCC2 = 100%) [3] was 36 % of FL-KCC2.

Source: publication PMC5452337
